Test results from article PMC2119692.

Tests used:
[1] = biological target: calmodulin targets in the leading lamellae (region of transverse fibers) of Swiss 3T3 fibroblasts during wound healing; test: steady state fluorescence anisotropy imaging microscopy
[2] = biological target: target proteins of calmodulin in serum-deprived and serum-stimulated Swiss 3T3 fibroblasts; test: as above

maximum fraction bound (fB) [1]: 50%
fraction bound (fB) [2]: < 10%
maximum fraction bound (fB) [2]: 95%
Substance: FITC-calmodulin (from UniProt P62157 1-149) (natural protein)
